Reference: IntAct's records for PubMed 21633354

B1: Condensin complex subunit 2 (Schizosaccharomyces pombe (strain ATCC 38366 / 972)), Q9Y7R3 (parent)
chain: MKRASLGGHAPVSLPSLNDDALEKKRAKENSRKQRELRRSSALHSITPRRESLNNSSPFNSSHQVPVLSNFEEWIKLATDNKINSTNTWNFALIDYFHDMSLLRDGEDINFQKASCTLDGCVKIYTSRIDSVATETGKLLSGLANDSKVLQQTEEGEDAENDDEDLQKKKERKRAQRSVKTLVKDFESIRAKKFELECSFDPLFKKMCADFDEDGAKGLLMNHLCVDQHGRIVFDSSDTVIKDLENKDVEAESQEAVVAAPIESHDTEMTNVHDNISRETLNGIYKCYFTDIDQLTICPSLQGFEFDSKGNLDVSLLKSLSDEVNMITTTSLVDNTMEKTDADAASLSSDSDGEEGHIVHALEEMAYDEENPYVDVVPKAMDESENPDFGVDTEVNMADGSTMNENYSIISTAAANGVYEYFDKSMKKNWAGPEHWRIQALRKNINNASTVFNSSNTAESSDNVSRSLSSTERKKRRELDNAIDFLQEVDVEALFTPATSSLKLPKSHWKRHNRCLLPDDYQYDSKRLLQLFLKPKMSVLPNADGEGQLQLNKALDDENDLDGIQPHGFDSDGSDNVDEGIPPYGFGDSDSPKQTPLLTPPSSSGFGDNLLLTARLAKPDMLNYAKRAKKVDVRVLKEKLWKCLDLENTIKENSINSHIEGSEMESEETNMPVKSFFSTVNQLEETYEKKELKDISTSFAFICVLHLANEHNLELTSNEDFSDVFIRPGPNLTTLEALENDV

Variants of: B1
Conditions: with h2a2_schpo hta2, P04910

Row | effect of a mutation on the interaction | Variant
1 | decreasing interaction | S5A;S41A;S52A

Variants of: B1
Conditions: with h2az_schpo pht1, P48003
h2az_schpo pht1, P48003, sequence (P48003 whole entry): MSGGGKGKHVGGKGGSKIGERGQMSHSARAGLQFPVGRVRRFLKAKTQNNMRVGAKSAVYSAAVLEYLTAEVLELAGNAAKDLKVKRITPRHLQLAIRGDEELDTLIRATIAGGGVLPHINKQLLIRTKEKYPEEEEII

Row | effect of a mutation on the interaction | Variant
2 | decreasing interaction | S5A;S41A;S52A
